The values that follow come from publication PMC2677881.

The target in the series is T1, NtbZIP (Nicotiana tabacum, UniProt Q4PKH1 1-400).
T1 sequence: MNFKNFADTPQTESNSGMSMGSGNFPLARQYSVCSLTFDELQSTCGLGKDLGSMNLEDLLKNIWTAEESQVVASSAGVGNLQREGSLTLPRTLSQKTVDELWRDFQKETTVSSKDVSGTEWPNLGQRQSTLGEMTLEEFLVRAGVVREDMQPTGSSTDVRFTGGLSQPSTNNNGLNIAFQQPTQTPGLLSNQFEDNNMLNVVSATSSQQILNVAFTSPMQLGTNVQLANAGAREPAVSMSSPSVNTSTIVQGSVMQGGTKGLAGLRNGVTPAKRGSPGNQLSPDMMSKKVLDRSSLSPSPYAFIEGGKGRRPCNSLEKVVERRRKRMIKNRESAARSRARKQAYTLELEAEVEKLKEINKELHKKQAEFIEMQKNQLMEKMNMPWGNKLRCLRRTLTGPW
Briefly: EMSA.

B1: 4x G-box of PNZIP promoter (dsDNA)
DNA 1: GCCACGTGTCGCCACGTGTCGCCACGTGTCGCCACGTGTC
DNA 2: GACACGTGGCGACACGTGGCGACACGTGGCGACACGTGGC
Take B1: the binding result is recorded as “binds”.
